Test results taken from patent EP0938497B1.

Target: IgG
Assay: microcalorimetry and surface plasmon resonance

Kd: 100 µM
Substance: locked helix peptide FNM(5)QQRRFY(6)ALH, cyclized (Fig. 11)
